Measured values: the RNAGym collection of RNA variant scans (doi:10.1073/pnas.2313332121)
Fewer inactive variants are shown than the library holds.

B1: TPR 5TU (parent)
chain: GGAUCUUCUCGAUCUAACAAAAAAGACAAAUCUGCCACAAAGCUUGAGAGCAUCUUCGGAUGCAGAGGCGGCAGCCUUCGGUGGCGCGAUAGCGCCAACGUUCUCAACUAUGACACGCAAAACGCGUGCUCCGUUGAAUGGAGUUUAUCAUG

Variants of: B1
Assay: polymerase ribozyme fitness, log enrichment relative to wild type (log ratio); higher = more active; in vitro selection for triplet polymerase activity
In short: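 Only genotypes with ≥10 input reads and ≥1 read per output were kept after Illumina sequencing of input and output libraries. These libraries were PCR-built, transcribed mutants of each subunit of a heterodimeric triplet polymerase ribozyme, each put through one triplicate in vitro selection round with frozen incubation at −7 °C, gel excision of extended constructs, streptavidin-bead capture and RT-PCR. Fitness is a logarithmic ratio of genotype enrichment to wild-type enrichment, from inverse-variance-weighted replicate averages, with the logarithm in base 2.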

Variant | polymerase ribozyme fitness (log ratio)
GGAUCUUCUCGAUCUAACAAAAAAGACAAAUCUGCCACAAAGCUUGUGCGUAUCUUCGGAUGCAGAGGCGGCAGCCUUCGGUGGCGCGAUAGAGCCAACGUUCUCAACUAUGACACGCAAAACGCGUGCUCCGUUGAAUGGAGUUUAUCAUG | ≤ -4.2
GGAACUUCUCGAUCUAACAAAAAAGACAAAUCUGCCACAAAGCUUGAGAGCAUCAUCGGAUGCCGAGGCGGCAGCCUUCGGUGGCGCGAUAGCGCCAACGUUCUCAACUAUGACACGCAAAACGCGUGCUCCGUUGAAUGGAGUUUAUCAUG | ≤ -4.2
GGUUCUUCUCGAUCUAACAAAAAAGACAAAUCUGCCACAAAGCUUGAGGACAUCUUCGGAUGCAGAGGCGGCAGCCUUCGGUGGCGCGAUAGCGCUAACGUUCUCAACUAUGACACGCAAAACGCGUGCUCCGUUGAAUGAAGUUUAUCAUG | -3.63
GGAUCUUCUCGAUCUAACAAAAAAGACAAAUCUGCCACAAAGCUUGAGAGCAUCUUCGGAUGCAGAGGCGGCAGCCUUCGGUGGCGCGAUAGCACCAACGUUCUCAACUAUGUCACGCAUAACGCGUGCUCCGUUGAAUGGAGUUUAUCAUG | -1.56
GGAUCUUCUCGAUCUAACAAAAAAGACAAAUCUGCCACAAAGCUUGAGAGCAUCUUCCGAUGCAGAGGCGGCAGCCUUCGGUGGCGCGAUAGCGCUAACGUUCUCAACUAUGACACGCAAAACGCGUGCUCCGUUGAAUGGAGUUUAUCAUG | -1.02
GGAUCUUCUCGAUCUAACAAAAAAGACAAAUCUGCCACAAAGCUUGAGAGCAUCUUCGGAUGCAGAGGCGGCAGCCUUCGUUGGCGCGAUACCGCCAACGUUCUCAACUAUGACAAGCAAAACGCGUGCUCCCUUGAAUGGAGUUUAUCAUG | -3.35
GGAUCUUCUCGAUCUAACAAACAAGUCAAAUCUGCCACAAAGUUUGAGAGCAUCUUCGGAUGCAGAGGCGGCAGCAUUCGGUGGCGCGAUAGGGCCAACGUUCUCAACUAUGACACGGAAAACGCGUGCUCCGUUGAAUGGAGUUUAUCAUG | ≤ -4.2
GGAUCUUCUCGAUCUAACAAAAAAGGCAAAUCUGCCACAAAGCGUGCGCGCAUCUUCGGAUGCAGAGGCGGGAGCGUUCGGUGGCGCGAUCGCGCCAACGUUGUGAACUAUGACACGCAAAACGCGUGCUCCGUUGAAUGGAGUUUAUCAUG | ≤ -4.2
GGAUCUUCUCGAUCUAACAAAAAAGACAAAUCUGCCACAAAGCUUGAGAGCAUCUUCGGAUGCAGAGGCGGCAGCCUUCGGUGGCGCUAUAGCGUCAACGUUCUCAACUAUGACACGCAAUGCACGUGCUCCGUUGAAUGGAGUUUAUCAUG | ≤ -4.2
GGAUCUUCUCGAUCUAACAAAAAAGACAAAUCUGCCACAAAGCUUGAGAGCAGGUUCGGAUGCAGAGGCGGCAGCCUUCGGUGGAGCGAUAGCGCCAACGUUCUCAACUAUGACACGCAAAACGCGUGCUCCGAUGAAUGGAGUUUAUCAUG | ≤ -4.2
GGAUCUUCUCGAUCUAACAAAAAAGACAAAUCUGCCCCAAAGCUUGAGAGCAUCUUCGGAUGCAGAGGCGGCAGCCUUCGGUGGCGCGAUAGCGCCAACGUUCUCAAGUAUGACACGCAAAACGCGUGCUCCGUUGAAUGGAGUUUAUCAUG | ≤ -4.2
GGAUCUUCUCGAUCUAACAAAAAAGACAAAUCUGCCACAAAGCUUGAGAGCAUCUUCGGAUGCAGAGGCGGCAGCUUUCGGUGGCGUGAUAGCGCCAACGUUCUCAACUAUGACACGCAAAACGCGUGCUCCGUUGAAUGGAGUUUAUCAUG | -0.242
GGAUCUUCUCGAUCUAACAAAAAAGACAAAUCUGCCACAAAGCUUGAGAGCCUCAUCGGAUGCAGAGGCGGUAGCCUUCGGUGGCGCGAUAGCGCCAUCGUUCUCAACUAUGACACGCAAAACGCGUGCUCCGUUGAAUGGAGUUUAUCAUG | -3.14
GGAUCUUCUCGAUCUAACAAAAAAGACAAAUCUGCCACAAAGCUUGAGAGCAACUUCGGAUGCAGAGGCGGCAGCCUUCGGUGGCGCGAUAGCGCCAACGUUCUCAACUAUGACACGCAAAACGCAUGCUCCGUUGAAUGGAGUUUAUCAUG | -0.879
GGAUCUUCUCGAUCUAACAAAAAAGACAAAUCUGCCACAAAGCUUGAGACCAUCUUCGGAUGCAGAGGCGGCAGCCUUCGGUGGAGCGAUAGAGCCAACGUUCUCAACUAUGACACGCAAAACGCGUGCUCCGUUGAAUGGAGUUUAUCAUG | ≤ -4.2
GGAUCUUCUCGAUCUAACAAUAAAGACACCUCUGCCACGAAGCAUGAGCGCAACUUCGGAUGCAGAGACGGCAGCCUUCGGUGGCGCGAUAGCGCCAACGUUCUUAACUAUGACACGCAAAACGCGUGCUCCGUUGAAUGGAGUUUAUCAUG | ≤ -4.2
GGAUCUUCUCGAUCUAACAAAUAAGACAAAUCUGCCACAAAGCUUGAGAUCAUCUUCGGAUGCAGAGGCGGCAGCCUUCGGUGGCGCGAUAGCGCAAACGUUCUCAACUAUGACACGCAAAACGCGUGCUCCGUUCAAUGGGGUUUAUCAUG | ≤ -4.2
GGAUCUUCUCGAUCUAACAAAAAAGACAAAUCUGCCACAAAGCUUGAGAGCAUUUUCGGAUGCAGAGGCGGCAGCCUUCGGUGGCGCGAUCUCGCCAACGUUCUUAACUAUGACACGCAAAACGCGUGCUCCUUUGAAUGGAGUUUAUCAUG | ≤ -4.2
GGAUCUUCUCGAUCGAACAAAAAAGACAAAUCUGCCACAAUGCUUGAGAGCAUCUUCGGAUGCAGAGGCGGCGGCCUUCGGUGGCGCGAUAGCGCCAACGUUCUCAACUAUGACACGCAAAACGCGUGCUCCGUUGAAUGGAGUUUAUCAUG | -1.57

Variant | polymerase ribozyme fitness (log ratio)
GGAUCUUCUCGGUCUAACAAAAAAGACAAAUCUGCCACAAAGCUUGAGAGCAUCUUCGGAUGCAGAGGCGGUAGCCUUCGGUGGCGCUAUAGCGCCAACGUUCUCAACUAUGACACGCAUAACGCGUGCUCCGUUGAAUGUAGUUUAUCAUG | ≤ -4.2
GGAUCUUCUCGAUCUAACAAAAAAGACAAGUCUGCCACAAAGCUUGAGAGCAUCUUCGGAUGCAGAGGCGGCAGCCUUCGGUGGCGCGAUAGCGCCAACGUUCUCAACUAUGACACGCAAAACGCGUGCUCCGUUGAGUGGAGUUUAUCAUG | ≤ -4.2
GGAUCUUCUCGAUCUAACAAAAAAGACAAAUCUGCCAAAAAGCUUGAGAGCAUCUUCGGAUGCAGAGGCGGCAGCCUUCGGUUGCGCGAUAGCGCGAACGUUCUCAACUAUGACACGCAAAACGCGUGCUCCGUUGAAUGGAGAUUAUCAUG | -0.619
GGAUCUUCUCGAUCUAACAAAAAAGACAAUUCUGCCACAAAGCUAGAGAGCAUCUUCGGAUGCAGAGGCGGCAGCCUUCGGUGGCGCGAUAGCUCCAACGUUCUCAACUAUGACACGCAAAACGCGUGCUGCGUUGAAUGGAGUUUAUCAUG | ≤ -4.2
GGAUCUUCUCGAUCUAUCAAAAAAGACAAAUCUGCCACAAAGCUUGAGAGUAUCUUCGGAUGCAGAGGCGGCAGCCUUCGGUCGCGCGAUUGCGCCAACGUUCUCAACUAUGACACGCAAAACGCGUGCUCCGUUGAAAAAAGUUUACCAUG | ≤ -4.2
GGAUCUUCUCGAUCUAACAAAAAAGACAUAUCUGCCACAAAGCUUGAGAGCAACUUCGGAUGCAGAGGCGGCAGCCUUCGGUGGCGCGAUAGCGCCAACGUUCUCAACUAUGACACGCAAAACGCGUGCUCCGUUGAAUGGAGUUUAUCAUG | -4.15
GGAUCUUCUCGAUCUAACAAAAAAGACAAAUCUGCCACAAUGCUUGUGAGCAUCUUCGGAUGCAGAGGCGGCAGCCUUCGGUGGCGCGAUAGGGCCAACGUUCUCAACUAUGACACGCAAAACGCGUGCUCCGUUGAAUGGAGUUUAUCAUG | -4.14
GGAUCUUCUCGAUCUAACAAAAAAGACAAAGCUGCCACAAAGCUUGAGAGCAUCUUCGGAAGCAGGGGCGGCAGCCUUCGGUGGCGCGACAGCGCCAACGCUCUCAACUAUGACACGCAAAACGCGUGCUCCGUUGAAUGGAGUUUAUCAUG | ≤ -4.2
GGAUCUUCUCGAUCUAACAAAAAAGACAUAUCUGCCACAAAUCUUGAGAGCAUCUUCGGAUGCAGAGGCGGCAGCCUUCGGUGUCGCGAUAGCGCCAACGUUCUCAACUAUGAAACGCAAAACGCGUGCUCCGUUGAAUGGAGUUUAUCAUG | ≤ -4.2
GGAUCUUCUCGCUCUAACAAAAAAGACAAAUCUGCCACAAAGCUUGAGAGCCUCUUCGGAUGCAGAGGCGGCAGCCUUCGGUGGCGUGCUAGCGCCAACGUUCUCAACUAUGACACGCAAAACGCGUGCUCCGUUGAAUGGAGUUUAUCAUG | -3.43
GGAUCUUCUCGAUCUAACAAAAAAGACAAAUCUGCCACAAAGCUUGAGAGCAUCUUCGGAUGCAGAGGCGGCAGCGUUCGGUGGCGCGAUAGCGCCUACGUUCUCAACUAUGACACGCAAAACGCGUGCUCCGUUGAAUGGAGUUUAUCAUG | ≤ -4.2
GGAUCUUAUCGAUCUAACAAAAAGGACAAAUCUGCCACAAAGCUUGAGAGCAUCUUCGGAAGCAGAGGCGGCAGCGUCCGGUGUCGCGAUAGCGCCAACGUUCUCAACUAUGACACGCAAAACGCGUGCUCCGUUGAAUGGAGUUUAUCAUG | ≤ -4.2
GGCACUUCUCGAUCUAACAAAAAAGACAAAUCUGCCACAAAGCUUGAGAGCAUCUUCGGAUGCAGAGGCGUCAGCCUUCGGUGGCGCAAUAGCGCCAACGUUCUCAACUAUGACACGCAAAACGCGUGCUCCGUUGAAUGGAGUUUAUCAUG | ≤ -4.2
GGAUCUUCUCGAUCUAACAAAAAAGACAAAUCUGCCACAAGGCUUGAGAGCAUCUUCGGAUGCAGAGGCGGCAGCCUUCGGUGGCGCGAUAGCCCCAACGUUCUCAACUAUGACACGCAAAACGCGUGCUCCGUUGAAUGGAGUUUAUCAUG | 0.425
GGAUCUUCUCGAUCUAACAAAGAAGACAAAUCUGCCACAAAGCUUGAGAGCAUCUUCAGAUGCAGAGGCGGCAGACUUCGGUGGCUCGAUAGCGCCAAAGUUUUCAACUAUGACACGCAAAACGCGUGCUCCGUUGAAUGCAGUUUAUCAUG | ≤ -4.2
GGAUCUUCUCGAUCUAACAAAAAAGACAAAUCUGCUACAAAGCUUGAGAGCAUCUUCGGAUGCAGAGGCGGCAGCCUUCGGUGGCGUGAUAGCGCCAACGUUCUCAACUAUGACACGCAAAACGCGUGCUCCGUUGAAUGGACUUUAUCAUG | -3.81
GGAUCUUCUCGAUCUAACAAAAAAGACAAAUCUGUCACAAAGCUUGAGAGCAUCUACGGAUGCAGAGGCGGCAGCCUUCGGUGGCGCGAUAGCGCCAACGUUCUCAACUAUGACACGCAAAACGCGUGCUCCGUUGAAUGGACUUUAUCAUG | -2.48
GGAUCUUCUCGAUCUAACAAAAGAGACAAAUCUGCCACAAAGCAUGAGAGCAUCUACGGAUGCAGAGGCGGCAGCCUUCGGUGGCGCGAUAGCGCCAACGUUCUCAACUAUGACACGCAAAACGCGUGCUCCGUUGAAUGGAGUUUAUCAUG | ≤ -4.2
GGAUCUUCUCGAUCUAGCAAAAAAGACAAAUCUGCCAGAAAGCUUGAGAGAAUCUUCGGAUGCAGAGGCGGCAGCCUGCGGUGGCGCGAGAGCGCCAACGUUCUCAACUAUGACACGCAAAACGCGUGCUACGUUGAAUGGAGUUUAUCAUG | ≤ -4.2
